Experiments:
[1] = Photophysical characterization: absorbance, excitation/emission spectra, extinction coefficients, quantum yields; format: physicochemical
Method: Protein preparation: mFAP2a, mFAP2b, and mFAP10 were produced by large-scale protein purification and SEC purification, and dialyzed overnight into DPBS that was adjusted to pH 7.40 using NaOH.
Chromophore preparation: DFHBI (Lucerna) and DFHBI-1T (Lucerna) were dissolved to 20.0 mM in 100% DMSO, and diluted in DPBS (pH 7.40) to measure absorbances on a Jasco V-750 spectrophotometer at peak absorbance wavelengths (417 nm for DFHBI and 422 nm for DFHBI-1T). Following background subtraction of identical buffer without chromophore, Beer’s Law was used to calculate the molar chromophore concentrations of the stock solutions using previously reported extinction coefficients.
Preparation of protein–chromophore complexes: For quantum yield measurements, 1.00 μM, 836 nM, or 919 nM chromophore solutions in DPBS (pH 7.40) at 4.00 mL final volumes were prepared for the following eight conditions: DFHBI only, DFHBI-1T only, 43.5 µM 6xHis-mFAP10 with DFHBI, 43.5 µM 6xHis-mFAP10 with DFHBI-1T, 134 μM 6xHis-mFAP2a with DFHBI, 134 μM 6xHis-mFAP2a with DFHBI-1T, 206 μM 6xHis-mFAP2b with DFHBI, and 206 μM 6xHis-mFAP2b with DFHBI-1T.
Extinction coefficients: Absorbance spectra of protein–chromophore complexes were first measured with a Thermo Scientific BioMate 3S UV–Vis Spectrophotometer (1 nm interval, 800 nm min^−1). The extinction coefficients were then calculated using Beer’s Law:12 A=ε⋅b⋅c, where A is peak absorbance, ε is extinction coefficient, b is path length (1 cm), and c is concentration (1.00 μM, 836 nM, or 919 nM).
Relative quantum yield: A Perkin-Elmer LS-B Luminescence Spectrophotometer (10 nm bandwidth, 1 nm interval, 100 nm min^−1) was used. The fluorescence emission spectra of the protein–chromophore complexes (in DPBS, pH 7.40) and reference dye Acridine Yellow G (in methanol) were first obtained, and the quantum yield was then calculated using the equation[53]:13 ϕc=ϕr⋅1−10^−Ar(λex)/1−10^−Ac(λex)⋅∫Fc(λ)⋅dλ/∫Fr(λ)⋅dλ⋅nc2/nr2, where ϕ is quantum yield, A(λex) is absorbance at the excitation wavelength λex ( λex = 440 nm), F is fluorescence emission, n is refractive index of the solution (1.3350 for DPBS at pH 7.40 and 1.3284 for methanol), and the subscripts “c” and “r” refer to the protein–chromophore complex measured and the reference dye, respectively. […]
Absolute quantum yield: An integrating sphere instrument (Hamamatsu C9920-12) (6 nm excitation bandwidth, 1 nm interval) and a high-sensitivity photonic multi-channel analyzer (Hamamatsu C10027-01) were used to measure a light emission spectrum. Absolute quantum yields were measured for solutions of protein–chromophore complexes in DPBS (pH 7.40) in which ≥95% of the total chromophore was occupying the protein-binding pocket (Table 1). […]

[2] = In vitro chromophore titration with DFHBI (fluorescence, single-binding site isotherm fit)
Method: Fluorescence endpoints were measured on a Synergy Neo2 hybrid multi-mode reader (BioTek) in flat bottom, black polystyrene, non-binding surface 96-well microplates (Corning 3650). In measuring chromophore-binding affinities (Fig. 1d, e), mFAP2, mFAP2a, and mFAP2b, and mFAP10 were produced by large-scale protein purification and SEC purification. Proteins were aliquoted in eight technical replicates in 200 μL final volumes to 20.0 nM final concentration in ten serial dilutions ( 10 dilution factor) of DFHBI starting from 31.6 μM DFHBI or 31.6 μM DFHBI-1T final concentrations, including an eleventh condition without chromophore. Fluorescence was excited at λex = 468 nm and fluorescence emission measured at λem = 530 nm. Background fluorescence endpoints of wells with identical chromophore concentrations but purified protein replaced with an identical volume of high-salt Tev cleavage buffer were measured, and fluorescence endpoints subtracted from those measured with protein. Background-subtracted data were averaged and the means normalized from 0 to 1 and fit to a single-binding site isotherm function using non-linear least squares fitting to obtain a fitted Kd value (Table 1), and the fit scaled to the maximum mean value (Fig. 1d, e).

higher affinity for DFHBI than DFHBI-1T [2]: ~ 6.1 fold | weaker affinity for DFHBI than the initial mFAP2 design [2]: ~ 10 fold
B1: mFAP2b: mFAP2.5 with V67I, "b" for bright (protein)
chain: SRAAQLLPGTWQVTMTNEDGQTSQGQWHFQPRSPYTMDIVAQGTISDGRPIVGYGKATVKTPDTLDIDITYPSLGNIKAQGQITMDSPTQFKWDATTKGENDFHGRLTGTLQRQE
brighter fluorescence with DFHBI than DFHBI-1T [1]: ~ 30 fold

Source: paper PMC7870846, “Incorporation of sensing modalities into de novo designed fluorescence-activating proteins” (Nature Communications, 2021)
